# Key:
# [1] = system: peptide #14, aspartic acid-containing (phosphomimetic)
# [2] = system: peptide #11 (Optimized PKCβ Sub.), alanine-substituted, in PKCα FRET sensor
# [3] = system: peptide #14 (PKCα pseudosubstrate), alanine-containing
substance,measurement,setting,value
human PKCα catalytic domain,ATP turnover of the catalytic domain for serine-containing peptide #14 with equimolar competitor peptide,[1],the alanine-substituted peptide was significantly better at inhibiting catalytic activity
same,kinase activity of the 10 nm peptide FRET sensor for the same substrate,[2],the higher affinity peptide sensor (#11) had a much lower activity than the lower affinity peptide sensor (#8)
same,ATP turnover of the catalytic domain for serine-containing peptide #14 with equimolar competitor peptide,[3],the alanine-substituted peptide was significantly better at inhibiting catalytic activity
same,basal kinase activity of the sensor (10 nm vs 30 nm ER/K linker) for the same substrate peptide,[3],the sensor with the 30 nm linker had significantly higher activity than the 10 nm linker for the same substrate peptide
